Reference: PMC2647316 (Nucleic Acids Research, 2008)

Biological target: T1, GkDnaC R330A (Geobacillus kaustophilus HTA426, UniProt Q5KU75 1-454, R330A)
T1 sequence: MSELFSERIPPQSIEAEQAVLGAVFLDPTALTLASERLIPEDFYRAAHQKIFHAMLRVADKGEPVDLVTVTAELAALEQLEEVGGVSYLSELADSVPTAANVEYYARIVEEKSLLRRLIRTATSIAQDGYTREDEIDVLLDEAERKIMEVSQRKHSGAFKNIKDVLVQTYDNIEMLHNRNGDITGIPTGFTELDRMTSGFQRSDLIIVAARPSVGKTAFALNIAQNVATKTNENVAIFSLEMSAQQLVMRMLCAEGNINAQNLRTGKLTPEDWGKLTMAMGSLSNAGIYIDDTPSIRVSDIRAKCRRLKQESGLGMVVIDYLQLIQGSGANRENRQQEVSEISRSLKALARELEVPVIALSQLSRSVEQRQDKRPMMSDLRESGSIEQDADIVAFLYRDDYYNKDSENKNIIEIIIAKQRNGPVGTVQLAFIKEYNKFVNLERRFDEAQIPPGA
Assay: SPR

## TTTTTTTTTTTTTTTTTTTTTTTTTTTTTT (ssDNA) [5'Bio-(dT)30]
  Kd: 17.8 µM
